# Laboratory results taken from the DeepSol protein solubility set.
# Test: soluble on expression in E. coli; label from the status in PepcDB or PDB records
row,Sequence,soluble on expression in E. coli
1,MMIMERHYTLKEASKILGVSIKTLQRWDKAGKIKCIRTLGGKRRVPESEIKRILGIKDKEQRKIIGYARVSFNAQKDDLERQIQLIKSYAEENGWDIQILKDIGSGLNEKRKNYKKLLKMVMNRKVEKVIIAYPDRLTRFGFETLKEFFKSYGTEIVIINKKHKTPQEELVEDLITIVSHFAGKLYGMHSHKYKKLTKTVKEIVREEDAKEKE,not soluble
2,MMKDKHGAMNAERRGMGEQRLAERMAELERRLKEVEAENIVLKELAYQSAKRYEQLKQLAKENDELRRQLLQSPWSEKTDKMDEDERPDSWFFRTLRQENAIMPHPERNEK,not soluble
3,MMKGSKSYTEYSSSFSTDEFGYDQNRSNSYNFNGPCINTDPEMKRKKRVASYNLFATEEKLKSTLKNSFKWIKNKFSGDDNSIRYNV,not soluble
4,MMKKALLIDDECWLRVQARDASADGRFVFAVRTTGVFCRPSCRSKRALRKNVRFFANAQQALDAGFRPCKRCQPDNARAQQRRLDKIACACRLLEQETPVTLAFLAQAVAMSPFHLHRLFKASTGMTPKGWQQAWRARRLREALAKGEPITAAIYRAGFPDSSSYYRHADQTLGMTAKQFRKGGDNVSVRYALTDWVYGRCLVAESERGICAILPGDSDDALLAELHTLFPSARHEPADALFQQRVRQVVAAINTRDVLLSLPLDIQGTAFQQQVWQALCAIPCGETVSYQQLAATIGKPTAVRAVASACGANKLAMVIPCHRVVRRDGALSGYRWGVRRKAQLLKREAQKEE,not soluble
5,MMKKKWYIVLTMSGYEEKVKENIEKKVEATGIKNLVGRIVIPEEVVLDATSPSERLILSPKAKLHVNNGKDVNKGDLIAEEPPIYARRSGVIVDVKNVRKIVVETIDRKYTKTYYIPESAGIEPGLRVGTKVKQGLPLSKNEEYICELDGKIVEIERMKKVVVQTPDGEQDVYYIPLDVFDRDRIKKGKEVKQGEMLAEARKFFAKVSGRVEVVDYSTRKEIRIYKTKRRKLFPGYVFVEMIMNDEAYNFVRSVPYVMGFVSSGGQPVPVKDREMRPILRLAGLEEYEEKKKPVKVELGFKVGDMVKIISGPFEDFAGVIKEIDPERQELKVNVTIFGRETPVVLHVSEVEKIE,soluble
6,MMKLRIEIDGNLEETEIVIKTPTLTDEIADLQRLLQESKAPRLTFYKGTGEYYLDLSEILFFETEGSKIYAHNQKEAYEVRLKLYELESILPRYFNRVSKSTIANIRQIYSVDKSFSGTGTISFYQTHKEVHVSRHYQSLLKENLRNMR,not soluble
7,MMKSIILIVLDGLGDRPGSDLQNRTPLQAAFRPNLNWLASHGINGIMHPISPGIRCGSDTSHMSLLGYDPKVYYPGRGPFEALGLGMDIRPGDLAFRANFATNRDGVIVDRRAGRENKGNEELADAISLDMGEYSFRVKSGVEHRAALVVSGPDLSDMIGDSDPHREGLPPEKIRPTDPSGDRTAEVMNAYLEEARRILSDHRVNKERVKNGRLPGNELLVRSAGKVPAIPSFTEKNRMKGACVVGSPWLKGLCRLLRMDVFDVPGATGTVGSNYRGKIEKAVDLTSSHDFVLVNIKATDVAGHDGNYPLKRDVIEDIDRAMEPLKSIGDHAVICVTGDHSTPCSFKDHSGDPVPIVFYTDGVMNDGVHLFDELSSASGSLRITSYNVMDILMQLAGRSDKFGSLEHHHHHH,soluble
8,MMKTLSSGNCTLSVPAKNSYRMVVLGASRVGKSSIVSRFLNGRFEDQYTPTIEDFHRKVYNIRGDMYQLDILDTSGNHPFPAMRRLSILTGDVFILVFSLDNRESFDEVKRLQKQILEVKSCLKNKTKEAAELPMVICGNKNDHGELCRQVPTTEAELLVSGDENCAYFEVSAKKNTNVDEMFYVLFSMAKLPHEMSPALHRKISVQYGDAFHPRPFCMRRVKEMDAYGMVSPFARRPSVNSDLKYIKAKVLREGQARERDKCTIQLEHHHHHH,soluble
9,MMNADCKTAFGAIEESLLWSAEQRAASLAATLACRPDEGPVWIFGYGSLMWNPALEFTESCTGTLVGWHRAFCLRLTAGRGTAHQPGRMLALKEGGRTTGVAYRLPEETLEQELTLLWKREMITGCYLPTWCQLDLDDGRTVNAIVFIMDPRHPEYESDTRAQVIAPLIAAASGPLGTNAQYLFSLEQELIKLGMQDDGLNDLLVSVKKLLAENYPDGVLRPGFALEHHHHHH,soluble
10,MMNYNTPKVSIVVPSLNSISYIRECIDSILNQTLKDIEILCIDANSTDGTLEVLKNYEKKDKRLRVIISDKKSYGYQMNLGIKEAKGEYLGIVESDDYIKTNMYERLYEIAKKNDCEVVKGDFYIFAYGKTEYVNVLRNSCEDIYNYKVNWNKDIRIFLGSDGINPIGIYRLDLLRTNQIKLNETPGASYQDNGLWFQIFALAKSIYFINEAFYMLRRDNPNSSVKSKEKVYCACEEYDFIRDFLKKHPDLEKTLAPICALHRFGNYMFTLERIDERYKLDFLKRFSQDFRKILKDKELDENLFGNINMQRINKIIENPVIYYYFSRGARARLQNQLVYRLGKVVVEAKSFNKIIKLPFLMLKICLEHNFEHKVYRSIVQFRPDLKLLPLECYLDYHEALVIKEHLSYKFGKLILLSFKGWYKGKIFILPFMLKKRYKEYKNKMILEHHHHHH,not soluble
11,MMRNSHTIENFERMPDGETSSLPDITNYQESVDENPVEECSAYSDTIATCSMCLQVAPHSQFFACTYPGCGYALKQKESVKSPTLFYRKERVLCGACAFLGDHAHHKAYLLKADKLAFLTASREIGGKLEMDMEEVCRLDKSHPVDNAMIIKSGGHVELEKISVVSFLSQAKTIEEWHSRHCMVNEMLSTIKYNREQGIDYLRKQSEKVMTLLNNAAQEIKSVSRTLPKQLTNQDKPHTSFGRRQHASQKNTEWANEEYSPFSSTCSESSTSTLHMAKALQSVDDEVTGGFGGFGFGFGASAVNKSLKGQIKSENYTSIAVTRLYKMLIRTEPKETALRRAADYLNELTHSKTEKKAVIEYMEKKHSIKWPEHII,not soluble
12,MMRWIRHMFAPSAHRSFPPRSMDSIAAAIAASEQLHTGQVMVAVEADLSAAALWRGHGARQRAEQAFAQLRTWDTEANNGVLIYLLLADHAIEVVADRGLRALVPDAAWAEVCRRMQQFLRDGQHEAAVLAGVEAVTELLCAHFPAAAQAQHEDELPNRPHILGLEHHHHHH,soluble
13,MMTKYGVVGTGYFGAELARFMSKVEGAKITAIYDPVNAAPIAKELNCVATATMEALCSHPDVDCVIIASPNYLHKAPVIAAAKAGKHVFCEKPIALNYQDCKDMVDACKEAGVTFMAGHVMNFFHGVRHAKALIKAGEIGEVTQVHTKRNGFEDVQDEISWKKIRAKSGGHLYHHIHELDCTLFIMDETPSLVSMAAGNVAHKGEKFGDEDDVVLITLEFESGRFATLQWGSSFHYPEHYVLIEGTTGAILIDMQNTAGYLIKAGKKTHFLVHESQAEDDDRRNGNISSEMDGAIAYGKPGKRTPMWLSSIMKLEMQYLHDVINGLEPGEEFAKLLTGEAATNAIATADAATLSSNEGRKVKLTEILGLEHHHHHH,soluble
14,MMYFISDTHFYHENIINLNPEVRFKGFEIVILTNLLKVLKPEDTLYHLGDFTWHFNDKNEYLRIWKALPGRKILVMGNHDKDKESLKEYFDEIYDFYKIIEHKGKRILLSHYPAKDPITERYPDRQEMVREIYFKENCDLLIHGHVHWNREGIKCACKDYRIECINANVEWNDYKPISEREIDKLISYEKAKN,soluble
15,MNAFNPTQFRAQFPALADAGVYLDSAATALKPQAVIDATHQFYCLSAGNVHRSQFAQAQRLTAQYEAARAKAARLLNAPDEKSIVWTRGTTEAINMVAQCYARPRLRPGDEIIVSVAEHHANLVPWLMVAQQTGAQVIKLPLNDRRLPDVERLPELITSRSRILALGQMSNVTGGCPDLASAISAAHAAGMVVMVDGAQGAVHFPADVQQLDIDFYAFSAHKLYGPTGIGVLYGKPELLEAMSPWLGGGKMIRDVSFEGFTTQSAPWKLEAGTPNVAGVIGLSAALEWLSDIDIEQAENWSRGLATLAEDALAKRPGFRSFRCQDSSLLAFDFVGVHHGDMVTLLAEYGIALRAGQHCAQPLLAELGVTGTLRASFAPYNTQHDVDALVNAVDRALELLVD,not soluble
16,MNAIADVQSSRDLRNLPINQVGIKDLRFPITLKTAEGTQSTVARLTMTVYLPAEQKGTHMSRFVALMEQHTEVLDFAQLHRLTAEMVALLDSRAGKISVSFPFFRKKTAPVSGIRSLLDYDVSLTGEMKDGAYGHSMKVMIPVTSLCPCSKEISQYGAHNQRSHVTVSLTSDAEVGIEEVIDYVETQASCQLYGLLKRPDEKYVTEKAYENPKFVEDMVRDVATSLIADKRIKSFVVESENFESIHNHSAYAYIAYP,soluble
17,MNALEPLFARLARSTFRSRFRLGIKERQYCWDKGAEVIDKHAADFIAQRLAPAHPANDGKQTPMRGHPVFIAQHATATCCRGCLAKWHQIPQGEPLSEAQQQYIVSVIHYWLVIQMNQR,not soluble
18,MNALKQAVRTYARCHANRDGLAVTTVPGLRTMCVEDPAGDLHSVYRPLVCFVLQGAKRMIVGSEERVFYGGQSVIVAADMPVVGRIVEASSGAPYLAIAVELEMALLREVAAQIGDTCSLRSSGMQTLFAEDTEGAMLDCASRLMHLLDRPDAVPILRPGIMRELHYWLLSGPHGPALRTLADPDSYAGRLAAAIAILRTEYRSRVPVERLAAAAAMSLTAFHKHFKMMTSLTPGQYQKRLRLIEARRLMLDQGFSASNAAFEVGYESVSQFTREYGRLFNMPPKQDALRARAISSIFKHSQADALGAELH,not soluble
19,MNCVCGSGKTYDDCCGPLLARTRSAASPEALMRSRYAAYALKDFDYIVETTDPERRDLFDHDVNRAWMEESDFLELRVLGSSEKGSRGTVEFIARFRRGGGPEQSHHERSQFRKARGRWYFSEGEAVD,soluble
20,MNDDLCYKLNYLARLILSKVNEKIKPHGVTQGQLPVLCCLHDAEGQTQAELCKNIQVEQPTMANTLRRMERDGLIFRTASDKDKRQSRVYITERTRPTVEALQEKRDEVVAAMVRHMSPEDLATFTRLLDVATKALENPETE,not soluble
21,MNDIPVQHNKNRCPSHPGDLLAEIIPATGKTKLEIAQMLGISRQHLYAILRAKKPISPSVSARLGKLFGDGAAVWLRMQAAYDAWHAEHETDVSQIPTLHVV,not soluble
22,MNDPADTLRATLADLVDGLPPRQAARAVERLIANYRGDTPTDAPILRDRADVVAYAAYRMPATFAAVRSALTAFAEAVPDWVPGSHLDVGGGTGAATWAVSDTWGGTRPVTVLDWAEPALVLGQEIAASLPALREARWRRSRIGAALDIESVELVTVSYVLNELTGSDRAALVDAAAGAARAVVIVEAGTPAGYARVVEARDRLIAAGFRVAAPCPHSAACPIEAGTDWCHFAARVSRSSLHRQVKSGSLAYEDEKFSYVAATRLPVEPAASRVVRRPQIRKGQVLLDLCASDERLRRSTVTKRHGDLYKAARDAAWGDPWPPGEDLEHHHHHH,soluble
23,MNDVQQAINSDDIPLTDELVVSYLQDNPEFFNRNNSLMTGLRLNDEQRGTVSLVERQQQQLRQKVYGLEDEITQLMSVANHNEQLFVLYSDLYLRLLDCQSAEELLDCLHQATTELLSLSSFKLWLVSGNNTEVAHHSLSTNDCAGVMQNRLTNDEYYFGRLQESEQTLIFSKPCLGSVVLIKLTHDEQAVGFLAIGSEDAHHFDPRMDTLLLNQFKRLVAKLLHQQLSMLEHHHHHH,soluble
24,MNEDVIVDRQYSHGAALTIRAFWAADEESRAAIAKASGLRWVPSSADQPGEQHWPYTEIFQRQMQMELGPDTETRLRIHQPSQLWVRAPSLGEGWLAVPLYPHPLRGQRI,not soluble
